Results published in article PMC3643854.

Legend:
[1] = target: HIV-1 AD8 gp41 W596L/K601H (HIV-1 AD8)
[2] = target: HIV-1 AD8 gp41 W596L/K601H/D674E (HIV-1 AD8)
[3] = target: HIV-1 AD8 gp120 surface glycoprotein; test: Western blotting of pelleted virions (virion-associated gp120 normalised to p24); conditions: virions from 293T cells transfected with pAD8 proviral clones; virions were analysed at 48 h posttransfection; parent: 2.16
[4] = target: HIV-1 AD8 gp120 surface glycoprotein; test: immunoprecipitation of pulse-chase biosynthetically labelled Env from cell lysates (c) and supernatants (s), SDS-PAGE and phosphorimaging; conditions: transfected 293T cells; cellular Env was analysed 5 h post synthesis; parent: 1

Substance: C34 fusion inhibitor peptide
- neutralization of HIV-1 AD8 virus in TZM-bl cells (luciferase), C34 IC50 against that for WT virus (log10 decrease against WT) [1]: 0.5
- neutralization of HIV-1 AD8 virus in TZM-bl cells (luciferase), C34 IC50 against that for WT virus (log10 decrease against WT) [2]: 0.5

Substance: HIV-1 AD8 gp41 transmembrane glycoprotein, wild type W596L; K601H
- other: gp120 pixels/p24 pixels [3]: 0.93
- ratio to parent [4]: 3.37

Substance: HIV-1 AD8 gp41 transmembrane glycoprotein, wild type W596L; K601H; D674E
- other: gp120 pixels/p24 pixels [3]: 1.07
- ratio to parent [4]: 3.59

Substance: HIV-1 AD8 gp41 transmembrane glycoprotein, wild type WL/KH/DG
- other: gp120 pixels/p24 pixels [3]: 0.8
- ratio to parent [4]: 5.36

Substance: HIV-1 AD8 gp41 transmembrane glycoprotein, wild type WL/KH/DN
- other: gp120 pixels/p24 pixels [3]: 0.67
- ratio to parent [4]: 3.96

Substance: HIV-1 AD8 gp41 transmembrane glycoprotein, wild type ΔTW/WL/KH/DN
- other: gp120 pixels/p24 pixels [3]: 0.6
- ratio to parent [4]: 4.13
